We go through two substances from article PMC3462613.

Read-outs that look alike come from different tables or passages of the source.

Broadly, the Kd is the equilibrium constant for the complex coming apart. Lower therefore signals a tighter complex.

Holding throughout (assay): fluorescence polarisation
For orientation: In fluorescence polarisation assays a small probe gives low polarisation when free and higher when bound to something large.

Experiment [1] has as its target FITC-labelled SMN^26–51, wild type (human) (UniProt Q16637).
The target of experiment [2] is FITC-labelled SMN^26–51 A46N (human) (UniProt Q16637).
The target of experiment [3] is FITC-labelled SMN^26–51 W34A (human) (UniProt Q16637).
Experiment [4] has as its target FITC-labelled SMN^26–51 Y43A (human) (UniProt Q16637).
The target of experiment [5] is SMN^26–51 peptide containing phosphoserine at positions 28 and 31 (human) (UniProt Q16637).
Experiment [6] has as its target FITC-labelled SMN^26–51 L39A (human) (UniProt Q16637).
The target in experiment [7] is FITC-labelled SMN^26–51 D44V (human) (UniProt Q16637).
The target in experiment [8] is FITC-labelled SMN^26–51 K41A (human) (UniProt Q16637).
The target of experiment [9] is FITC-labelled SMN^26–51 D35A (human) (UniProt Q16637).
In experiment [10] the target is FITC-labelled SMN^26–51 D44A (human) (UniProt Q16637).
Experiment [11] addresses FITC-labelled SMN^26–51 D36A (human) (UniProt Q16637).
Experiment [12] addresses FITC-labelled SMN^26–51, wild type (human) (UniProt Q16637). The source holds these as a separate data set.
The target is the same in experiment [13]. The source holds these as a separate data set.
In experiment [14] the target is FITC-labelled SMN^26–51 D44V (human) (UniProt Q16637). The source holds these as a separate data set.
Experiment [15] concerns the target FITC-labelled SMN^26–51, wild type (human) (UniProt Q16637). The source holds these as a separate data set.
Experiment [16] deals with FITC-labelled SMN^26–51 D44V (human) (UniProt Q16637). The source holds these as a separate data set.
In experiment [17] the target is FITC-labelled SMN^26–51, wild type (human) (UniProt Q16637). This is another data set of the same source.
Experiment [18] has the same target. This is another data set of the same source.

In experiment [1], Gemin2 (12–280) (natural protein) displayed a dissociation constant Kd of 7 nM.

With Gemin2^95–280 (domain or fragment), the Kd in experiment [2] is 42 nM; in experiment [3], 16 nM; in experiment [4] it was 510 nM; in [5], 4.2 nM; in experiment [6], 74 nM; in experiment [7], 8.4 nM. Also, the equilibrium dissociation constant (Kd) in experiment [8] was 4.8 nM; in experiment [1] it was 3.3 nM; in [9], 6.8 nM; in experiment [10] it was 5.3 nM; in experiment [11] it was 8.3 nM; in experiment [12], 2.4 nM. The dissociation constant Kd is 180 nM in experiment [13]; 1800 nM in [14]; 2.2 nM in experiment [15]; 1.5 nM in [16]; 2.3 nM in [17]; 5.2 nM in experiment [18].
